Laboratory results taken from publication PMC8934182.

How the values were obtained:
[1] = biological target: SARS-CoV-2 spike S1 (SARS-CoV-2, UniProt P0DTC2 13-685); experiment: 5.0 ng/mL in EIS
[2] = biological target: Interferon-gamma (IFN-γ) (UniProt P01579 24-161); experiment: competition
[3] = biological target: SARS-CoV nucleocapsid (N) protein (SARS-CoV, UniProt P59595 1-422); experiment: competition

Measured: binding result

Chain of Interferon-gamma (IFN-γ) (P01579 24-161): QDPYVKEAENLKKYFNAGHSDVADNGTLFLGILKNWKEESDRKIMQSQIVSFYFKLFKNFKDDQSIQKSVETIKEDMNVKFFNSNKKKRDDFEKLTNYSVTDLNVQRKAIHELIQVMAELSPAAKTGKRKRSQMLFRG
Chain of SARS-CoV nucleocapsid (N) protein (P59595 whole entry): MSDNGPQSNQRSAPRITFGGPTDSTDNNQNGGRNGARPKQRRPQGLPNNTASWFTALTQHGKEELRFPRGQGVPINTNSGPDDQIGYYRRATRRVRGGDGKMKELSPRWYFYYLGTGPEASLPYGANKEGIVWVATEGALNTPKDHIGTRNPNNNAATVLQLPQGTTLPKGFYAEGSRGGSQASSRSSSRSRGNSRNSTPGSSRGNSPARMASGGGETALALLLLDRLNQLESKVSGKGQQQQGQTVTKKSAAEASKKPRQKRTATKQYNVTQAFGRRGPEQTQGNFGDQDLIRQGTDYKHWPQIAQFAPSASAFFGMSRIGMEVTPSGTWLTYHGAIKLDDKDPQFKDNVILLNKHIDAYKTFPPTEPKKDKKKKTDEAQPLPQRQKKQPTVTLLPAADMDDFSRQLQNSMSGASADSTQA

B1: N48 aptamer (ssDNA)
DNA: GCTGGATGTCGCTTACGACAATATTCCTTAGGGGCACCGCTACATTGACACATCCAGC
no binding: all assays above
